From patent US20120316071A1 (published 2012)
Each block holds one binder with its values, some of them ahead of it.

How the values were obtained:
[1] = biological target: T1, rHuman Erythropoietin R/Fc Chimera, CF (R&D Systems Cat#963-ER) (human, UniProt P19235 25-250); test: MSD multispot ECL, antigen spotted on plate; Fab 1.19 uM; blank spot 24999
T1 construct: Bought recombinant protein; also called EPO R/Fc; Epo R; Fc part of the bought chimera not given
T1 sequence (looked up): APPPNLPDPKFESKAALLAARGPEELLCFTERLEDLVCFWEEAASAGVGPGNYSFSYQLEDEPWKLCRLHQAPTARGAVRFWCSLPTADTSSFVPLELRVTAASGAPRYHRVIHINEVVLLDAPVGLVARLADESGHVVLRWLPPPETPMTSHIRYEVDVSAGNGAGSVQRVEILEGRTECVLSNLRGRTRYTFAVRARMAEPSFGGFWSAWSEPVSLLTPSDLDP

[2] = biological target: T2, Recombinant Human DLL4 (R&D Systems Cat#1506-D4/CF) (human, UniProt Q9NR61 27-524); test: as above
T2 construct: Bought recombinant protein; also called delta-like protein 4; rHuman DLL4

[3] = biological target: T3, rHuman EGF R/Fc Chimera, CF (R&D Systems Cat#344-ER) (human, UniProt P00533 25-645); test: as above
T3 construct: Bought recombinant protein; also called epidermal growth factor receptor; Fc part of the bought chimera not given

[4] = biological target: T4, rHuman Notch-1/Fc Chimera, CF (R&D Systems Cat#3647-TK) (human, UniProt P46531 19-526); test: as above
T4 construct: Bought recombinant protein; Fc part of the bought chimera not given

[5] = biological target: T5, rHuman P-Cadherin/Fc Chimera, CF (R&D Systems Cat#861-PC) (human, UniProt P22223 108-654); test: as above
T5 construct: Bought recombinant protein; Fc part of the bought chimera not given

[6] = biological target: T1, rHuman Erythropoietin R/Fc Chimera, CF …; test: MSD multispot ECL, antigen spotted on plate; Fab 0.2975 uM; blank spot 5019
[7] = biological target: T2, Recombinant Human DLL4 (R&D Systems …); test: as above
[8] = biological target: T3, rHuman EGF R/Fc Chimera, CF (R&D …); test: as above
[9] = biological target: T4, rHuman Notch-1/Fc Chimera, CF (R&D …); test: as above
[10] = biological target: T5, rHuman P-Cadherin/Fc Chimera, CF (R&D …); test: as above
[11] = biological target: T1, rHuman Erythropoietin R/Fc Chimera, CF …; test: MSD multispot ECL, antigen spotted on plate; Fab 0.01859 uM; blank spot 1776
[12] = biological target: T2, Recombinant Human DLL4 (R&D Systems …); test: as above
[13] = biological target: T3, rHuman EGF R/Fc Chimera, CF (R&D …); test: as above
[14] = biological target: T4, rHuman Notch-1/Fc Chimera, CF (R&D …); test: as above
[15] = biological target: T5, rHuman P-Cadherin/Fc Chimera, CF (R&D …); test: as above
[16] = biological target: T1, rHuman Erythropoietin R/Fc Chimera, CF …; test: MSD multispot ECL, antigen spotted on plate; Fab 0.07438 uM; blank spot 2504
[17] = biological target: T2, Recombinant Human DLL4 (R&D Systems …); test: as above
[18] = biological target: T3, rHuman EGF R/Fc Chimera, CF (R&D …); test: as above
[19] = biological target: T4, rHuman Notch-1/Fc Chimera, CF (R&D …); test: as above
[20] = biological target: T5, rHuman P-Cadherin/Fc Chimera, CF (R&D …); test: as above
[21] = biological target: T6, rHuman IGF-1 sR, (IGF-1 sR), CF (R&D Systems Cat#391-GR) (human, UniProt P08069 31-932); test: Multispot ECL (MSD) assay, antigen spotted on plate, Fab at 0.096 µM; blank spot 917
T6 construct: Bought recombinant soluble receptor; also called insulin-like growth factor-1 soluble receptor

[22] = biological target: T6, rHuman IGF-1 sR, (IGF-1 sR), CF (R&D …); test: Multispot ECL (MSD) assay, antigen spotted on plate, Fab at 0.48 µM; blank spot 2945
[23] = biological target: T6, rHuman IGF-1 sR, (IGF-1 sR), CF (R&D …); test: Multispot ECL (MSD) assay, antigen spotted on plate, Fab at 0.0192 µM; blank spot 751
[24] = biological target: T7, full-length human DLL4 expressed on the surface of CHO cells (human, UniProt Q9NR61 26-685); test: flow cytometry; 250 nM biotinylated Notch-Fc on CHO-DLL4 cells, streptavidin-PE; no-Fab baseline of the blocking series
T7 construct: also called CHO-DLL4; DLL4-expressing CHO cells

ECL signal [1]: 193000
ECL signal [2]: 74900
ECL signal [3]: 62500
ECL signal [4]: 72000
ECL signal [5]: 69700
ECL signal [6]: 167000
ECL signal [7]: 34700
ECL signal [8]: 42200
ECL signal [9]: 37500
ECL signal [10]: 26000
ECL signal [11]: 188000
ECL signal [12]: 18900
ECL signal [13]: 11800
ECL signal [14]: 17600
ECL signal [15]: 11700
ECL signal [16]: 154000
ECL signal [17]: 20700
ECL signal [18]: 16600
ECL signal [19]: 22000
ECL signal [20]: 14800
B1: Fab VH1-46_IGHD6-13*01_IGHJ4*01 & L2_IGKJ1*01 (Fab, V domains shown)
VH: QVQLVQSGAEVKKPGASVKVSCKASGYTFTSYYMHWVRQAPGQGLEWMGIINPSGGSTSYAQKFQGRVTMTRDTSTSTVYMELSSLRSEDTAVYYCAREGYSSSWYDYFDYWGQGTLVTVSS
VL: not shown
notes: Germline library Fab expressed in E. coli; VH was cloned into Plasmid A, which adds CH1 with His6 and Flag tags

ECL signal [21]: 2450
ECL signal [22]: 8930
ECL signal [23]: 1830
B2: Fab VH1-46_IGHD6-13*01_IGHJ4*01 & A27_IGKJ1*01 (Fab, V domains shown)
VH: B1 VH
VL: not shown
notes: Germline Fab made in E. coli; VH was cloned in Plasmid A (CH1 constant region, His6 and Flag tags) and the kappa VL in Plasmid C (kappa CL); Only the variable domains are tied to this Fab by name

signal of biotinylated Notch-Fc bound to CHO-DLL4 cells without Fab (read-out not given) [24]: 531
B3: rHuman Notch-1/Fc Chimera (Fc fusion)
chain: ARGPRCSQPGETCLNGGKCEAANGTEACVCGGAFVGPRCQDPNPCLSTPCKNAGTCHVVDRRGVADYACSCALGFSGPLCLTPLDNACLTNPCRNGGTCDLLTLTEYKCRCPPGWSGKSCQQADPCASNPCANGGQCLPFEASYICHCPPSFHGPTCRQDVNECGQKPGLCRHGGTCHNEVGSYRCVCRATHTGPNCERPYVPCSPSPCQNGGTCRPTGDVTHECACLPGFTGQNCEENIDDCPGNNCKNGGACVDGVNTYNCRCPPEWTGQYCTEDVDECQLMPNACQNGGTCHNTHGGYNCVCVNGWTGEDCSENIDDCASAACFHGATCHDRVASFYCECPHGRTGLLCHLNDACISNPCNEGSNCDTNPVNGKAICTCPSGYTGPACSQDVDECSLGANPCEHAGKCINTLGSFECQCLQGYTGPRCEIDVNECVSNPCQNDATCLDQIGEFQCICMPGYEGVHCEVNTDECASSPCLHNGRCLDKINEFQCECPTGFTGHLCQ
notes: Bought from R&D Systems (Cat#3647-TK); also called Notch-Fc; Notch-FC; Fc part of the bought chimera not given
